Experimental data reported in patent US20180291096A1 (Janssen / Centocor, published 2018).

T1: murine p40 (murine, UniProt P43432 23-335)
T1 sequence (looked up): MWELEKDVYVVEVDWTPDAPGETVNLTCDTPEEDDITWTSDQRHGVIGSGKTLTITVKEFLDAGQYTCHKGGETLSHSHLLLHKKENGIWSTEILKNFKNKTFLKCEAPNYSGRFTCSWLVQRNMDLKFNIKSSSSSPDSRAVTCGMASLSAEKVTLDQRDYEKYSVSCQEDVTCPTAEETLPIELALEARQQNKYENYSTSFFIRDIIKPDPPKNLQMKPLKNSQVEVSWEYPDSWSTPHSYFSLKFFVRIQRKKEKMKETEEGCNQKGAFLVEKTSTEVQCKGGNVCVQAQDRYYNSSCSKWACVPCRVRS

T2: murine IL-23 (murine, UniProt Q9EQ14 22-196; P43432 23-335)
T2 sequence (looked up) 1: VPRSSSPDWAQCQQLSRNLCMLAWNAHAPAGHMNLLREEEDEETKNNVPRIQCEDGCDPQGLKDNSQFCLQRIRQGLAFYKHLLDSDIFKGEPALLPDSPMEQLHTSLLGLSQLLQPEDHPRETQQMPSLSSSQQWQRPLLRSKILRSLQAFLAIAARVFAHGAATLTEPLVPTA
T2 sequence (looked up) 2: T1 sequence (looked up)

T3: mIL-12 (Disulfide-linked, glycosylated heterodimer; the letters do not carry this.)
T3 construct: also called murine IL-12; copies: 1 + 1
T3 alpha: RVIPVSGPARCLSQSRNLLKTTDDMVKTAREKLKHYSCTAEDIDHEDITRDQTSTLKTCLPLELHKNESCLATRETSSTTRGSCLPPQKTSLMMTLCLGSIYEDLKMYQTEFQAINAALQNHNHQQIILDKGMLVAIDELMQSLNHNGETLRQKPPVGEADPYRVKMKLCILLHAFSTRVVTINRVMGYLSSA
T3 beta: T1 sequence (looked up)

T4: recombinant human IL-12 (hrIL-12), produced at Centocor (human, UniProt P29459 23-219; P29460 23-328)
T4 construct: also called IL-12 CNTO
T4 sequence (looked up) 1: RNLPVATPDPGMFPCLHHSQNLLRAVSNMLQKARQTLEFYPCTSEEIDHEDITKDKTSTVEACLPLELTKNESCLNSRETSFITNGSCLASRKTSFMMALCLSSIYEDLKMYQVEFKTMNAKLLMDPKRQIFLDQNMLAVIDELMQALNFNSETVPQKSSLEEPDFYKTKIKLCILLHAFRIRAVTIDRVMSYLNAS
T4 sequence (looked up) 2: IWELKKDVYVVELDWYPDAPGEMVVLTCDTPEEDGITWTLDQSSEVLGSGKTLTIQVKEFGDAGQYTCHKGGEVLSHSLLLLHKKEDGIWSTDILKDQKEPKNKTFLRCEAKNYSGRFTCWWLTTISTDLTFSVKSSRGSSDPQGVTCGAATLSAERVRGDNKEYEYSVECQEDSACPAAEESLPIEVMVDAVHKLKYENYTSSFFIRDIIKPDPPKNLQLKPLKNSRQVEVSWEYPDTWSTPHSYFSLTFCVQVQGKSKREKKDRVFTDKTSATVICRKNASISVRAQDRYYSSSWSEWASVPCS

T5: p40 subunit of hrIL-12 (hrp40 monomer) (human, UniProt P29460 23-328)
T5 construct: also called p40 R&D
T5 sequence (looked up): T4 sequence (looked up) 2

B1: MOR04190 mAb (antibody, human IgG1, V domains shown)
VH: QVELVQSGAEVKKPGSSVKVSCKASGGTFSSNYISWVRQAPGQGLEWMGGIIPIFGHANYAQKFQGRVTITADESTSTAYMELSSLRSEDTAVYYCARSKKGMYGGWTYPLMMFDLWGQGTLVTVSS
VL: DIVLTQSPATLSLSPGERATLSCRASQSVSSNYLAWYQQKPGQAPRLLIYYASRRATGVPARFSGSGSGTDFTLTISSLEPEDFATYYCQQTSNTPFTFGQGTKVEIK
notes: human IgG1/kappa; also called 4190 (κ); MOR0190
B2: recombinant human IL-23 (hrIL-23), produced at Centocor (ligand)
chain 1: RAVPGGSSPAWTQCQQLSQKLCTLAWSAHPLVGHMDLREEGDEETTNDVPHIQCGDGCDPQGLRDNSQFCLQRIHQGLIFYEKLLGSDIFTGEPSLLPDSPVAQLHASLLGLSQLLQPEGHHWETQQIPSLSPSQPWQRLLLRFKILRSLQAFVAVAARVFAHGAATLSP
chain 2: T4 sequence (looked up) 2
notes: p19-p40 heterodimer; also called rhIL-23; huIL-23
B3: MOR04083 mAb (antibody, human IgG1, V domains shown)
VH: QVELVQSGAEVKKPGSSVKVSCKASGGTFSNYAISWVRQAPGQGLEWMGGIIPMFGYANYAQKFQGRVTITADESTSTAYMELSSLRSEDTAVYYCARDIYAGMDVWGQGTLVTVSS
VL: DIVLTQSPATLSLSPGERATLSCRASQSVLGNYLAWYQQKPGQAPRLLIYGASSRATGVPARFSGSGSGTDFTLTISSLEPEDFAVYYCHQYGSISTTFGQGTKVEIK
notes: human IgG1/kappa; also called 4083 (κ)
B4: MOR05049 mAb (antibody, human IgG1, V domains shown)
VH: QVELVESGGGLVQPGGSLRLSCAASGFTFSSFGMSWVRQAPGKGLEWVSGIEHKYLSYTTHYAASVKGRFTISRDNSKNTLYLQMNSLRAEDTAVYYCARYWGTPYLMQFDNWGQGTLVTVSS
VL: DIALTQPASVSGSPGQSITISCTGTSSDVGGYNSVSWYQQHPGKAPKLMIYSVSSRPSGVSNRFSGSKSGNTASLTISGLQAEDEADYYCSSYDTNKPLVVFGGGTKLTVL
notes: human IgG1/lambda
B5: human IL-23R-Fc fusion protein (Fc fusion, UniProt Q5VWK5 24-355, looked up, not shown: a dimerising Fc or GST)
chain: GITNINCSGHIWVEPATIFKMGMNISIYCQAAIKNCQPRKLHFYKNGIKERFQITRINKTTARLWYKNFLEPHASMYCTAECPKHFQETLICGKDISSGYPPDIPDEVTCVIYEYSGNMTCTWNAGKLTYIDTKYVVHVKSLETEEEQQYLTSSYINISTDSLQGGKKYLVWVQAANALGMEESKQLQIHLDDIVIPSAAVISRAETINATVPKTIIYWDSQTTIEKVSCEMRYKATTNQTWNVKEFDTNFTYVQQSEFYLEPNIKYVFQVRCQETGKRYWQPWSSLFFHKTPETVPQVTSKAFQHDTWNSGLTVASISTGHLTSDNRGDIG
notes: extracellular domain; also called hIL-23R; soluble IL-23R

Tests used:
[1] = biological target: B2; assay: biotinylated hrIL-23 on immobilized IL-23R-Fc
Description: (§1) In this experiment, a human IL-23R-Fc fusion protein was immobilized on a plate. This fusion protein consists of the extracellular domain of human IL-23 receptor fused to a human Fc segment. Biotinylated hrIL-23 was added to the plate either alone or after preincubation with individual IL-23p19 mAbs. Soluble IL-23R (IL-23R-Fc) was used as a positive control. IL-23 binding was detected with HRP-conjugated streptavidin. […] There was no inhibition by B21M, a mAb with unrelated specificity. […] IL-23 binding was inhibited by the p40 neutralizing mAb CNTO 1275 (same as mAb 12A), as expected. […] CNTO 1275 again served as a positive control.

[2] = biological target: T1, murine p40; assay: cytokine capture ELISA: mAbs coated onto plates, cytokines at 100 ng/ml; murine p40 containing cytokine detected with C17.8-biotin; target printed as m(p40)2
[3] = biological target: T2, murine IL-23; assay: cytokine capture ELISA: mAbs coated onto plates, cytokines at 100 ng/ml; murine p40 containing cytokine detected with C17.8-biotin
[4] = biological target: T3, mIL-12; assay: as above
[5] = biological target: T4, recombinant human IL-12 (hrIL-12), …; assay: cytokine capture ELISA: mAbs coated onto plates, cytokines at 100 ng/ml, binding detected with mAb12B-biotin
Description: (§2) Purified mouse anti-hIL-23 mAbs were evaluated in cytokine capture ELISA to determine their antigen subunit specificity. Briefly, IL-23 mAbs were coated onto plates and incubated with 100 ng/ml) hrIL-23, hrIL-12, and hrp40, respectively. Following incubation with biotinylated anti-p40 mAb, the binding was detected using HRP—conjugated streptavidin. An anti-p40 mAb and an anti-IL-12 mAb (20C2, Catalog No. 555065, BD Pharmingen, San Diego, Calif.) with known specificity were used as controls.

[6] = biological target: T5, p40 subunit of hrIL-12 (hrp40 monomer); assay: as above
Description: as §2

[7] = biological target: B2; assay: cell-based or functional assay
[8] = biological target: T6, IL-23R and IL-12Rβ1 naturally expressed on TALL-104 cells (human, UniProt Q5VWK5 24-629; P42701 24-662); assay: flow cytometry on TALL-104 cells
T6 construct: whole, on cells

[9] = biological target: B2; assay: blocking ELISA: 20 ng/ml IL-23-bt. with titrated mAb, binding to plate-immobilized IL-23R-Fc is blocked
[10] = biological target: B2; assay: hrIL-23/hIL-23R competition assay, soluble receptor as reference
[11] = biological target: B2; assay: blocking ELISA (BRBA): biotinylated IL-23 with titrated soluble IL-23R-Fc, binding to plate-immobilized IL-23R-Fc
Description: as §1

fold weaker potency than soluble IL-23R-Fc [1] [fold]	binding result [2]	binding result [3]	binding result [4]	binding result [5]	binding result [6]	IC50, inhibition of IL-17 production [7] [µg/mL]	Binder	other results
~3	no binding (tested: 100 ng/ml)	no binding (tested: 100 ng/ml)	no binding (tested: 100 ng/ml)	no binding (tested: 100 ng/ml)	no binding (tested: 100 ng/ml)	0.218	B1	–
–	–	–	–	–	–	–	B2	binding result [8]: binds
~3	no binding (tested: 100 ng/ml)	no binding (tested: 100 ng/ml)	no binding (tested: 100 ng/ml)	no binding (tested: 100 ng/ml)	no binding (tested: 100 ng/ml)	1.4	B3	–
–	–	–	–	–	–	0.0162	B4	IC50 (read off the curve) [9]: ~0.1 µg/mL
–	–	–	–	–	–	–	B5	IC50 [10]: 1.8 nM; IC50 (read off the curve) [11]: ~0.05 µg/mL
